Source: patent publication US7393670B2, “Tyrosyl-tRNA synthetase variants” (Japan Science and Technology Agency, priority 2001, dated 2008)
Where a chain is given by its changes, count along the chain named.

B1: AC: E. coli TyrRS double variant: position 37 Alanine, position 195 Cysteine (protein, UniProt P0AGJ9 2-424, looked up, variant Y37A Q195C)
Tyrosine--tRNA ligase: ASSNLIKQLQERGLVAQVTDEEALAERLAQGPIALACGFDPTADSLHLGHLVPLLCLKRFQQAGHKPVALVGGATGLIGDPSFKAAERKLNTEETVQEWVDKIRKQVAPFLDFDCGENSAIAANNYDWFGNMNVLTFLRDIGKHFSVNQMINKEAVKQRLNREDQGISFTEFSYNLLQGYDFACLNKQYGVVLCIGGSDQWGNITSGIDLTRRLHQNQVFGLTVPLITKADGTKFGKTEGGAVWLDPKKTSPYKFYQFWINTADADVYRFLKFFTFMSIEEINALEEEDKNSGKAPRAQYVLAEQVTRLVHGEEGLQAAKRITECLFSGSLSALSEADFEQLAQDGVPMVEMEKGADLMQALVDSELQPSRGQARKTIASNAITINGEKQSDPEYFFKEEDRLFGRFTLLRRGKKNYCLICWK
B2: VA: E. coli TyrRS double variant: position 37 Valine, position 195 Alanine (protein, UniProt P0AGJ9 2-424, looked up, variant Y37V Q195A)
Tyrosine--tRNA ligase: B1 Tyrosine--tRNA ligase with A36V, C194A
B3: 37V: E. coli TyrRS variant: position 37 Valine, position 195 Glutamine (protein, UniProt P0AGJ9 2-424, looked up, variant Y37V)
Tyrosine--tRNA ligase: B1 Tyrosine--tRNA ligase with A36V, C194Q

What was measured:
Assay type in all cases: biochemical
[1] = Aminoacylation reaction, simplified Lloyd's method, inorganic phosphate detected with Biomol green; parameters: key: ***: the reaction could be detected strongly at 25 nM; **: strongly at 250 nM; *: weakly at 250 nM; the activity is high in the order of *** > ** > * > —; conditions: Table 3; 3-iodotyrosine 1 mM; 37° C. for 4 min
Procedure: (§1) In the first method, Lloyd's method (Nucleic Acids Research, 23:2886-2892, 1995) where inorganic phosphate produced by pyrophosphatase-drived hydrolysis of pyrophosphate which was one of the reaction products of the aminoacylation reactions was quantified was simplified, and the inorganic phosphate was detected using Biomol green (Funakoshi) to carry out the measurement of the aminoacylation reaction.
(§2) Amino acid concentrations were 200 μM and 1 mM for tyrosine and 3-iodotyrosine, respectively.
(§3) The method where the aminoacylation reaction is measured by quantifying inorganic phosphate produced by pyrophosphatase-drived hydrolysis of pyrophosphate which is one of reaction products of the aminoacylation has been described by Lloyd et al. (Nucleic Acids Research, 23:2886-2892, 1995). In one method of the invention, this method was simplified and the aminoacylation reaction was measured by the detection of inorganic phosphate using Biomol green (Funakoshi). Each enzyme obtained was incubated with 0.05 ml of the buffer B containing 1 mM ATP (Seikagaku Corporation), 30 μM purified crude tyrosyl-tRNA, and 100 μM tyrosine or 0.5 mM 3-iodotyrosine at 37° C. for one hour. To stop the reaction, 0.1 ml of Bio mol green was added. Absorbance of its supernatant was measured at 630 nm.

[2] = as above; parameters: key: ***: the reaction could be detected strongly at 25 nM; **: strongly at 250 nM; *: weakly at 250 nM; the activity is high in the order of *** > ** > * > —; conditions: Table 3; tyrosine 200 μM; 37° C. for 4 min
Procedure: as §1, §2
as §3, with “Each enzyme obtained was incubated with 0.05 ml of the buffer B containing 1 mM ATP (Seikagaku Corporation), 30 μM purified crude tyrosyl-tRNA, and 100 μM tyrosine or 0.5 mM 3-iodotyrosine at 37° C. for one hour.” left out

[3] = Aminoacylation activity by Lloyd's method (release of pyrophosphates); conditions: for Initial velocity of release of pyrophosphates, 3-iodotyrosine / Initial velocity of release of pyrophosphates, Tyrosine: at 37° C.; for Initial velocity of release of pyrophosphates, 3-iodotyrosine: 200 μM 3-iodotyrosine; for Initial velocity of release of pyrophosphates, Tyrosine: 200 μM tyrosine
Procedure: In the second method, Lloyd's method (Nucleic Acids Research, 23:2886-2892, 1995) was carried out without alteration.
In the second method, the activity was assayed by Lloyd's method (Nucleic Acids Research, 23:2886-2892, 1995). Each enzyme obtained was incubated with 0.4 ml of the buffer B containing 1 mM ATP (Seikagaku Corporation), 100 μM purified crude tyrosyl-tRNA, 200 μM tyrosine or 3-iodotyrosine at 37° C. for 6 min. The aminoacylation activity was represented as concentrations of released phosphate per min.

[4] = Aminoacylation reaction, simplified Lloyd's method, inorganic phosphate detected with Biomol green; parameters: key: ***: the aminoacylation reaction was detected by a microplate reader in the reaction at enzyme concentrations of 50 nM; **: 500 nM; *: 5 μM; the activity is high in the order of *** > ** > * > —; conditions: Table 2; tyrosine 200 μM; 37° C. for 4 min
Procedure: as §1, §2
as §3, with “Each enzyme obtained was incubated with 0.05 ml of the buffer B containing 1 mM ATP (Seikagaku Corporation), 30 μM purified crude tyrosyl-tRNA, and 100 μM tyrosine or 0.5 mM 3-iodotyrosine at 37° C. for one hour.” left out

[5] = as above; parameters: key: ***: the aminoacylation reaction was detected by a microplate reader in the reaction at enzyme concentrations of 50 nM; **: 500 nM; *: 5 μM; the activity is high in the order of *** > ** > * > —; conditions: Table 2; 3-iodotyrosine 1 mM; 37° C. for 4 min
Procedure: as §1, §2, §3

Molecule | Aminoacylation activity, 3-iodotyrosine [1] | Aminoacylation activity, Tyrosine [2] | relative tyrosine analogue to tyrosine ratio ([3]; 3-iodotyrosine versus tyrosine, from Table 4) | Initial velocity of release of pyrophosphates, 3-iodotyrosine [3] | Initial velocity of release of pyrophosphates, Tyrosine [3] | Aminoacylation activity, Tyrosine [4] | Aminoacylation activity, 3-iodotyrosine [5]
B1 | ** | * | inferior to VC | 3.1 nM PPi/min/nM enzyme | 1.0 nM PPi/min/nM enzyme |  | 
B2 | ** | * |  | 6.6 nM PPi/min/nM enzyme | 3.7 nM PPi/min/nM enzyme |  | 
B3 | *** | *** |  | 73 nM PPi/min/nM enzyme | 140 nM PPi/min/nM enzyme | *** | ***
